Results on two compounds are retold here after PMC9146797, “[^99mTc]Tc-Labeled Plectin-Targeting Peptide as a Novel SPECT Probe for Tumor Imaging” (Pharmaceutics, 2022).

The nature of data set [1]: In vitro stability in FBS (RCP by ITLC). The format is in vitro ADME, bovine. To be noted: 37 °C, 0-6 h. As to the method: The [^99mTc]Tc-labeled PTP was characterized using an Agilent 1260 HPLC system (Agilent Technologies, Santa Clara, CA, USA) equipped with a UV-vis detector (λ = 220 nm) and a radioactive flow detector (BioScan, Poway, CA, USA). A SunFire C18 column (5 µm, 4.6 × 250 mm, Waters, Japan) was used at a 1 mL/min flow rate with the following gradient method: 0.1% trifluoroacetic acid in H2O and CH3CN (0–20 min, 15–45% CH3CN). The RCP of [^99mTc]Tc-HYNIC-PTP was determined by radio-HPLC and could also be rapidly analyzed by ITLC in a system consisting of silica gel 60 F254 TLC plates (Merck, Germany) and 50% acetonitrile as mobile phase. To assess the stability in vitro, the formed [^99mTc]Tc-HYNIC-PTP (500 μL, 1 mCi) was mixed with 500 μL of PBS (0.1 M, pH = 7.4) and 500 µL of cysteine solution (100-fold molar excess over the PTP) at room temperature, and 500 µL of FBS at 37 °C. The RCPs were tested by ITLC at different time intervals (0–6 h).

The test system of data set [2] is healthy ICR mice. Briefly: Pharmacokinetics in blood. In kind it is in vivo. To be noted: for radioactivity in blood: i.v. 20 µCi. As to the method:
The pharmacokinetic profile of [^99mTc]Tc-HYNIC-PTP was investigated in healthy ICR mice. The mice were randomly divided into nine groups (n = 3), and each mouse was intravenously injected with [^99mTc]Tc-HYNIC-PTP at a dose of 20 µCi in a 200 µL solution. One hundred microliters of blood from each mouse was immediately collected and weighed at designated times (1, 2, 5, 15, 30, 60, 120, 240, and 360 min), and radioactivity was measured using a γ-counter (CAPINTEC, USA) to calculate the percent uptake of the injected dose per gram (%ID/g). In addition, the pharmacokinetic data were analyzed by DAS 2.0 (Shanghai, China) using a two-compartment model to calculate the half-life of [^99mTc]Tc-HYNIC-PTP in the blood.

Data set [3] relates to tumor-bearing mice (U87, C6, A549, 4T1, and BxPC-3). Briefly: SPECT imaging in vivo. Particulars: i.v. 200 µL of 10 mCi/mL, 0.5-4 h. The protocol: The feasibility of [^99mTc]Tc-HYNIC-PTP as a SPECT probe for tumor imaging was examined using established subcutaneous tumor models. Briefly, [^99mTc]Tc-HYNIC-PTP solution (200 µL, [^99mTc]Tc = 10 mCi/mL, corresponding to 2 µg of HYNIC-PTP) was intravenously injected into tumor-bearing mice. SPECT images were acquired 0.5, 1, 2, and 4 h after injection using a SPECT imaging system equipped with a Xeleris 2.0 workstation and low-energy general-purpose collimators (Infinia, Denver, CO, USA). After SPECT imaging, the tumors and muscle tissues were excised to confirm plectin expression levels by immunohistochemistry. Briefly, excised specimens were fixed in formalin and embedded in paraffin. The sections (5 μm) were subjected to heat treatment in a citrate solution for antigen retrieval and blocking with 3% bovine serum albumin for 30 min. Then the sections were incubated with anti-plectin primary antibody (1:200) overnight at 4 °C. After incubation with secondary antibody (K5007, DAKO, Carpinteria, CA, USA) at room temperature for 50 min, the slides were treated with 1:100 DAB (K5007, DAKO, USA) and counterstained with hematoxylin. At least three sections of each specimen were chosen, and 5–10 high-power visual fields were randomly selected to calculate the positive area of staining. The average areas were then used to plot histograms.

Data set [4] is described as follows: CCK-8 cytotoxicity assay. To be noted: C6 and BEAS-2B cells, PTP 0-200 µg/mL, CCK-8, absorbance 450 nm, BxPC-3, C6, BEAS-2B cells (Figure S1), read-out: cell viability. The format is cell-based. As to the method:
CCK-8 assays were used to assess the potential cytotoxic effects of PTP on normal and tumor cell lines. Briefly, taking BxPC-3 cells as an example, the cells were seeded into 96-well plates at a density of 1 × 10^4 per well with RPMI-1640 medium and 10% FBS. After 24 h, the medium was replaced with 100 µL of fresh medium containing different concentrations of PTP (0–200 µg/mL) for another 24 h. Next, 10 µL of CCK-8 solution was added, and the cells were subsequently cultured for 1.5 h. Absorbance at 450 nm was measured using a Varioskan Flash multimode microplate reader (Thermo Fisher Scientific, Waltham, MA, USA). The cytocompatibility of PTP was also assessed in C6 and BEAS-2B cells using the same method.

Data set [5] has as its system BALB/c nude mice. Briefly: Preliminary toxicity study in vivo. As to the method:
To assess the preliminary safety in vivo, five BALB/c nude mice were treated with PTP at a single dose (1 mg, 100 µL), and another five mice treated with saline were used as the control group. The body weight, physical activity, and death of each mouse were recorded during the following seven days. The major organs of the mice, including the heart, liver, spleen, lung, and kidneys, were harvested for histological examination.

[6] abbreviates: blood, two-compartment model, DAS 2.0.

Where a SMILES comes first, the peptide text is derived from it. Where no end group is shown, it is not given here.

Regarding `CC(C)C[C@H](NC(=O)[C@@H](NC(=O)[C@H](CCCCN)NC(=O)c1ccc(NN)nc1)[C@@H](C)O)C(=O)N[C@@H](CC(C)C)C(=O)N1CCC[C@H]1C(=O)N[C@H](C(=O)N1CCC[C@H]1C(=O)O)[C@@H](C)O` [[^99mTc]Tc-HYNIC-PTP, metal not drawn] (HELM PEPTIDE1{[NNc1ccc(C(=O)[*:2])cn1].K.T.L.L.P.T.P}$$$$V2.0), the “change of RCP in FBS” value in data set [1] is “no evident changes in RCPs”. Moreover, the radioactivity in blood in data set [2] (1 min post-injection, n = 3, γ-counter) was 14.52 %ID/g; in data set [2] (30 min post-injection, n = 3), 1.35 %ID/g; in data set [2] (360 min post-injection, n = 3), “Less than 0.01 %ID/g”. In data set [2] (setting [6]), the “clear-phase half-life (t1/2 beta)” value was 9.17 min. Besides, the “distribution-phase half-life (t1/2 alpha)” value in data set [2] (setting [6]) is 0.88 min. Moreover, the route of clearance result in data set [3] is reported as “predominantly cleared through the urinary system”.
Consider KTLLPTP [PTP], for which, in data set [4], the viability at 24 h is > 90%. Further, the death of mice entry in data set [5] (single dose 1 mg in 100 µL, five mice, seven days, vs saline) was “None of the mice died”. Besides, the “body weight and physical activity” value in data set [5] (single dose 1 mg in 100 µL, within seven days, vs saline group) is listed as “no significant difference”. For the same compound, in data set [5] (single dose 1 mg, vs saline group (Figure S2)), the “H&E staining of main organs (heart, liver, lung, spleen, kidneys)” value was “no significant difference in tissue damage, necrotic areas, or abnormalities”.
